# From patent US20260258394A1, “PLANT ENZYMES WITH IMPROVED ACTIVITY” (MAX-PLANCK-GESELLSCHAFT ZUR FÖRDERUNG DER WISSENSCHAFTEN …, priority 2023, published 2026)
# Substitutions are numbered along the chain they refer to. In names and notes the source's numbering stands.
# T1: Glycolyl-CoA Carboxylase GCC M5 variant G20R (Methylorubrum extorquens propionyl-CoA carboxylase variant G20R, L100S, Y143H, D407I, I450V, W502R); β-subunit SEQ (Methylorubrum extorquens, UniProt C5AP75, D407I/G20R/I450V/L100S/W502R/Y143H)
# T1 construct: overexpressed in E. coli BL21-birA with M. extorquens biotin ligase
# T1 sequence (C5AP75 1-510 G20R/L100S/Y143H/D407I/I450V/W502R): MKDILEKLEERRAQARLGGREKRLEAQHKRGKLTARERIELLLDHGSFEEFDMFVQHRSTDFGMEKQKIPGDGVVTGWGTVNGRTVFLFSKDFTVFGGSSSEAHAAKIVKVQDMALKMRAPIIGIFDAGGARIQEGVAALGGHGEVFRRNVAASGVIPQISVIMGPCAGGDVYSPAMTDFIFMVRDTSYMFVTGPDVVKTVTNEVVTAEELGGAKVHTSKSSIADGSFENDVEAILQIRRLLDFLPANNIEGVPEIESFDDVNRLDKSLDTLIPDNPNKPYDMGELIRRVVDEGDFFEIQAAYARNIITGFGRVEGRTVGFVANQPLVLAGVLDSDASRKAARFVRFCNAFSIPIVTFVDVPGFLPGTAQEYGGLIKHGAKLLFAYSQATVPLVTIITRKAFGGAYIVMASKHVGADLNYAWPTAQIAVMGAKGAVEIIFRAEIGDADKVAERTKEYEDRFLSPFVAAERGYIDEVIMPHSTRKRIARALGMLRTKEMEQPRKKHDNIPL
# T1 sequence (C5AWU5 1-667 partner): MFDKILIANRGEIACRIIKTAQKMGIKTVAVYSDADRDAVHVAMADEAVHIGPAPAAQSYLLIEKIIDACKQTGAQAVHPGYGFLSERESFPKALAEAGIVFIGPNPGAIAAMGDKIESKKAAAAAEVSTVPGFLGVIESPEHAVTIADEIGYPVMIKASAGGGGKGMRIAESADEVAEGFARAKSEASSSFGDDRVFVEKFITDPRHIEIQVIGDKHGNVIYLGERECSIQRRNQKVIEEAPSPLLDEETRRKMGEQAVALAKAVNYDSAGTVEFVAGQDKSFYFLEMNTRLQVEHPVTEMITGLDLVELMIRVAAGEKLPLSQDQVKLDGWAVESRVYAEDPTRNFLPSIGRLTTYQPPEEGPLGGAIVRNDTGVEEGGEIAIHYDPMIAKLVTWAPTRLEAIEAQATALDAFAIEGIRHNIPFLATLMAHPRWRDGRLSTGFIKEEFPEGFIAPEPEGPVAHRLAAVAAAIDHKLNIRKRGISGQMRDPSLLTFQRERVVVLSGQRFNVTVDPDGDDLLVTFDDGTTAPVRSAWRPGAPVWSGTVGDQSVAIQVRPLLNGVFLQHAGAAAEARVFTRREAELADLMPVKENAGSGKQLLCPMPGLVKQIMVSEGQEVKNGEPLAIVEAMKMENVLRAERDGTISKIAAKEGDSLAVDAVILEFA
# T2: GCC M5_G20R (M. extorquens) β-subunit G20R, L100S, Y143H, D407I, I450V, W502R mutations
# T2 chain: T1 sequence (C5AP75 1-510 G20R/L100S/Y143H/D407I/I450V/W502R)
# B1: Glycolyl-CoA Carboxylase GCC M5 variant G20R (Methylorubrum extorquens propionyl-CoA carboxylase variant G20R, L100S, Y143H, D407I, I450V, W502R; β-subunit SEQ … (protein)
# chain: T1 sequence (C5AP75 1-510 G20R/L100S/Y143H/D407I/I450V/W502R)
# notes: overexpressed in E. coli BL21-birA with M. extorquens biotin ligase
# B2: Glycolyl-CoA Carboxylase GCC M5 variant S100N (= L100N; Methylorubrum extorquens propionyl-CoA carboxylase variant L100N, Y143H, D407I, I450V, W502R; β-subunit … (protein)
# chain: T1 sequence (C5AP75 1-510 G20R/L100S/Y143H/D407I/I450V/W502R) with R20G, S100N
# notes: as for B1
# B3: PCC WT (M. extorquens) α-subunit (protein)
# chain: T1 sequence (C5AWU5 1-667 partner)
# Experiments:
# [1] = molecular target: T1, Glycolyl-CoA Carboxylase GCC M5 variant G20R (Methylorubrum extorquens propionyl-CoA carboxylase variant G20R, L100S, Y143H, D407I, I450V, W502R); β-subunit SEQ; assay: Kinetic characterization of GCC M5 G20R (Vmax, kcat, App. KM) using LC-MS assays; format: biochemical
# Source text: The carboxylation activity can be measured as catalytic rate of carboxylation of glycolyl-CoA (conversion of glycolyl-CoA into tartronyl-CoA) (Scheffen, loc. cit.). Catalytic rate (kcat) is here defined as the maximum formation rate of tartronyl-CoA out of glycolyl-CoA and HCO3^−. It describes how many mol of the substrate are converted per time and per mol of enzyme. It can only be approximated as it requires 100% substrate saturation of the active sites. Therefore, turnover rates at different initial substrate concentrations can be measured to compute the catalytic rate with the Michaelis-Menten equation.
# [2] = system: Glycolyl-CoA Carboxylase GCC M5 (Methylorubrum extorquens propionyl-CoA carboxylase variant L100S, Y143H, D407I, I450V, W502R; β-subunit SEQ ID NO: 1 …); conditions: cited from earlier work
# [3] = substrate: CC(=O)SCCNC(=O)CCNC(=O)[C@H](O)C(C)(C)COP(=O)(O)OP(=O)(O)OC[C@H]1O[C@@H](n2cnc3c(N)ncnc32)[C@H](O)[C@@H]1OP(=O)(O)O; assay: Kinetic characterization of GCC M5 G20R (Vmax, kcat, App. KM) using LC-MS assays; format: biochemical, Methylorubrum extorquens; conditions: other: G20R; means±s.d., n=18, nonlinear regression
# Source text: (§1) The data represent means±s.d., as determined from n=18 independent measurements using nonlinear regression.
# [4] = substrate: CC(C)(COP(=O)(O)OP(=O)(O)OC[C@H]1O[C@@H](n2cnc3c(N)ncnc32)[C@H](O)[C@@H]1OP(=O)(O)O)[C@@H](O)C(=O)NCCC(=O)NCCSC(=O)CO; assay: as above; format: biochemical, Methylorubrum extorquens; conditions: other: G20R; means±s.d., n=18, nonlinear regression
# Source text: as §1
# [5] = substrate: CC(=O)SCCNC(=O)CCNC(=O)[C@H](O)C(C)(C)COP(=O)(O)OP(=O)(O)OC[C@H]1O[C@@H](n2cnc3c(N)ncnc32)[C@H](O)[C@@H]1OP(=O)(O)O; assay: Kinetic characterization of GCC M5 S100N (Vmax, kcat, App. KM) using LC-MS assays; format: biochemical, Methylorubrum extorquens; conditions: other: S100N; means±s.d., n=18, nonlinear regression
# Source text: as §1
# [6] = substrate: CC(C)(COP(=O)(O)OP(=O)(O)OC[C@H]1O[C@@H](n2cnc3c(N)ncnc32)[C@H](O)[C@@H]1OP(=O)(O)O)[C@@H](O)C(=O)NCCC(=O)NCCSC(=O)CO; assay: as above; format: biochemical, Methylorubrum extorquens; conditions: other: S100N; means±s.d., n=18, nonlinear regression
# Source text: as §1
# [7] = molecular target: T2, GCC M5_G20R (M. extorquens) β-subunit …
# [8] = means±s.d., reference Scheffen loc. cit.
molecule,measurement,setting,value
"CC(C)(COP(=O)(O)OP(=O)(O)OC[C@H]1O[C@@H](n2cnc3c(N)ncnc32)[C@H](O)[C@@H]1OP(=O)(O)O)[C@@H](O)C(=O)NCCC(=O)NCCSC(=O)CO [Glycolyl-CoA, glycolyl-CoA]","Vmax, fold higher than GCC M5",[1]; G20R versus GCC M5,1.8 -fold
same,apparent KM value for glycolyl-CoA (change versus GCC M5),"[1]; G20R versus GCC M5, result in words",slightly increased
same,kcat,"[1]; G20R, unit not given",9.8±0.2
same,catalytic rate of carboxylation of glycolyl-CoA,"[2]; Scheffen, Nat. Catal. 4, 105-115, 2021",5.6 ± 0.3 s⁻¹
same,Km,"[2]; means±s.d., reference Scheffen loc. cit., read-out: App. KM",150 ± 30 µM
same,Vmax,[2]; [8],2590 ± 130 nmol/min/mg
same,kcat,[2]; [8],5.6 ± 0.3 s⁻¹
same,kcat/KM,[2]; reference Scheffen loc. cit.,36300 M⁻¹ s⁻¹
B1,Km,[3],380 ± 100 µM
same,Vmax,[3],2.25 µmol/min/mg
same,kcat,[3],4.9 ± 0.4 s⁻¹
same,kcat/Km,[3],13000 M⁻¹ s⁻¹
same,Km,[4],270 ± 20 µM
same,Vmax,[4],4.52 µmol/min/mg
same,kcat,[4],9.8 ± 0.2 s⁻¹
same,kcat/Km,[4],36400 M⁻¹ s⁻¹
B2,Km,[5],630 ± 100 µM
same,Vmax,[5],0.174 µmol/min/mg
same,kcat,[5],0.38 ± 0.03 s⁻¹
same,kcat/Km,[5],596 M⁻¹ s⁻¹
same,Km,[6],320 ± 50 µM
same,Vmax,[6],0.79 µmol/min/mg
same,kcat,[6],1.7 ± 0.1 s⁻¹
same,kcat/Km,[6],5360 M⁻¹ s⁻¹
B3,Specific activity (nmol min^-1 mg^-1) (nmol min^-1 mg^-1),[7],2600
same,"Vmax [nmol min^-1 mg^-1], glycolyl-CoA (nmol min^-1 mg^-1)",[7],4520
same,"kcat [s^-1], glycolyl-CoA",[7],9.8 s⁻¹
